From patent publication US20230322924A1 (Janssen / Centocor, published 2023)

Biological target: T1, human PSMA on cells (LNCaP) (human, UniProt Q04609 1-750)
T1 construct: whole, on cells; also called LNCaP cells
Test: flow cytometry cell binding assay on LNCaP cells
Experimental: PSMA×CD3 bispecific antibodies were tested for binding to PSMA positive cell line, LNCAP, to PSMA negative cell line, PC3. To assess the binding capabilities of the PSMA bispecific antibodies, the cell-binding assay was utilized (described previously). Bispecific antibodies were normalized for protein concentration and then incubated with the same number of cells expressing either human or cyno PSMA. The MFI at each concentration was collected by flow cytometry and plotted as a function of concentration. Data was transformed via log 10 and then plotted. Nonlinear regression of binding curves was done to determine EC50s.

T1 sequence (Q04609 whole entry): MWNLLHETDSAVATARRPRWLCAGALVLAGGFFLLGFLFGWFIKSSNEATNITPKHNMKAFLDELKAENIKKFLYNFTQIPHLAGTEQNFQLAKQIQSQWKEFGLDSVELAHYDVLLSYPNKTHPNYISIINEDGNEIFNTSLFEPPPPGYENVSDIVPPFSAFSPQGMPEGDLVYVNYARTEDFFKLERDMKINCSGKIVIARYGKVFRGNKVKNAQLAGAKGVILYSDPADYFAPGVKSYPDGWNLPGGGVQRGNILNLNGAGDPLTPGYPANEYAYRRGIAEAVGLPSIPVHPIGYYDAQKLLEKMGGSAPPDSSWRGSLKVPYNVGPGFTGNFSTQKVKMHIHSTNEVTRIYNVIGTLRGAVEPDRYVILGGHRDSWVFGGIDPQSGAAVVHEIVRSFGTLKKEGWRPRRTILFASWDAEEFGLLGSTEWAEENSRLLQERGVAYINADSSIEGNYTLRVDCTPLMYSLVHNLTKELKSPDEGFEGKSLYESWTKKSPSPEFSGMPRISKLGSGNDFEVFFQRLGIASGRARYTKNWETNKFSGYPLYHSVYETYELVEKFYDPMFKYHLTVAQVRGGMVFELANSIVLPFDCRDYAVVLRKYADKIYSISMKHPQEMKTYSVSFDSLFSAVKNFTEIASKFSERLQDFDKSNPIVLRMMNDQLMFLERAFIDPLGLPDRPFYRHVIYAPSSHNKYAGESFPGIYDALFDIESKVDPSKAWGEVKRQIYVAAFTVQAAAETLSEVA

| Binder | binding result |
| --- | --- |
| PS3B84 (bispecific antibody, human IgG4 S228P, kappa, lambda, F234A L235A, IgG4 PAA; also called PSMB344 x CD3B376) heavy 1: not shown light 1: not shown heavy 2: QVQLQQSGPRLVRPSQTLSLTCAISGDSVFNNNAAWSWIRQSPSRGLEWLGRTYYRSKWLYDYAVSVKSRITVNPDTSRNQFTLQLNSVTPEDTALYYCARGYSSSFDYWGQGTLVTVSSASTKGPSVFPLAPCSRSTSESTAALGCLVKDYFPEPVTVSWNSGALTSGVHTFPAVLQSSGLYSLSSVVTVPSSSLGTKTYTCNVDHKPSNTKVDKRVESKYGPPCPPCPAPEAAGGPSVFLFPPKPKDTLMISRTPEVTCVVVDVSQEDPEVQFNWYVDGVEVHNAKTKPREEQFNSTYRVVSVLTVLHQDWLNGKEYKCKVSNKGLPSSIEKTISKAKGQPREPQVYTLPPSQEEMTKNQVSLTCLVKGFYPSDIAVEWESNGQPENNYKTTPPVLDSDGSFLLYSKLTVDKSRWQEGNVFSCSVMHEALHNHYTQKSLSLSLGK light 2: QSALTQPASVSGSPGQSITISCTGTSSNIGTYKFVSWYQQHPDKAPKVLLYEVSKRPSGVSSRFSGSKSGNTASLTISGLQAEDQADYHCVSYAGSGTLLFGGGTKLTVLGQPKAAPSVTLFPPSSEELQANKATLVCLISDFYPGAVTVAWKADSSPVKAGVETTTPSKQSNNKYAASSYLSLTPEQWKSHRSYSCQVTHEGSTVEKTVAPTECS | binds |
| PS3B82 (bispecific antibody, human IgG4 S228P, kappa, lambda, F234A L235A, IgG4 PAA; also called PSMB362 x CD3B376) heavy 1: not shown light 1: not shown heavy 2: QVQLQQSGPRLVRPSQTLSLTCAISGDSVFNNNAAWSWIRQSPSRGLEWLGRTYYRSKWLYDYAVSVKSRITVNPDTSRNQFTLQLNSVTPEDTALYYCARGYSSSFDYWGQGTLVTVSSASTKGPSVFPLAPCSRSTSESTAALGCLVKDYFPEPVTVSWNSGALTSGVHTFPAVLQSSGLYSLSSVVTVPSSSLGTKTYTCNVDHKPSNTKVDKRVESKYGPPCPPCPAPEAAGGPSVFLFPPKPKDTLMISRTPEVTCVVVDVSQEDPEVQFNWYVDGVEVHNAKTKPREEQFNSTYRVVSVLTVLHQDWLNGKEYKCKVSNKGLPSSIEKTISKAKGQPREPQVYTLPPSQEEMTKNQVSLTCLVKGFYPSDIAVEWESNGQPENNYKTTPPVLDSDGSFLLYSKLTVDKSRWQEGNVFSCSVMHEALHNHYTQKSLSLSLGK light 2: QSALTQPASVSGSPGQSITISCTGTSSNIGTYKFVSWYQQHPDKAPKVLLYEVSKRPSGVSSRFSGSKSGNTASLTISGLQAEDQADYHCVSYAGSGTLLFGGGTKLTVLGQPKAAPSVTLFPPSSEELQANKATLVCLISDFYPGAVTVAWKADSSPVKAGVETTTPSKQSNNKYAASSYLSLTPEQWKSHRSYSCQVTHEGSTVEKTVAPTECS | binds |
| PS3B81 (bispecific antibody, human IgG4 S228P, kappa, lambda, F234A L235A, IgG4 PAA; also called PSMB361 x CD3B376) heavy 1: not shown light 1: not shown heavy 2: QVQLQQSGPRLVRPSQTLSLTCAISGDSVFNNNAAWSWIRQSPSRGLEWLGRTYYRSKWLYDYAVSVKSRITVNPDTSRNQFTLQLNSVTPEDTALYYCARGYSSSFDYWGQGTLVTVSSASTKGPSVFPLAPCSRSTSESTAALGCLVKDYFPEPVTVSWNSGALTSGVHTFPAVLQSSGLYSLSSVVTVPSSSLGTKTYTCNVDHKPSNTKVDKRVESKYGPPCPPCPAPEAAGGPSVFLFPPKPKDTLMISRTPEVTCVVVDVSQEDPEVQFNWYVDGVEVHNAKTKPREEQFNSTYRVVSVLTVLHQDWLNGKEYKCKVSNKGLPSSIEKTISKAKGQPREPQVYTLPPSQEEMTKNQVSLTCLVKGFYPSDIAVEWESNGQPENNYKTTPPVLDSDGSFLLYSKLTVDKSRWQEGNVFSCSVMHEALHNHYTQKSLSLSLGK light 2: QSALTQPASVSGSPGQSITISCTGTSSNIGTYKFVSWYQQHPDKAPKVLLYEVSKRPSGVSSRFSGSKSGNTASLTISGLQAEDQADYHCVSYAGSGTLLFGGGTKLTVLGQPKAAPSVTLFPPSSEELQANKATLVCLISDFYPGAVTVAWKADSSPVKAGVETTTPSKQSNNKYAASSYLSLTPEQWKSHRSYSCQVTHEGSTVEKTVAPTECS | binds |
| PS3B78 (bispecific antibody, human IgG4 S228P, kappa, lambda, F234A L235A, IgG4 PAA; also called PSMB359 x CD3B376) heavy 1: not shown light 1: not shown heavy 2: QVQLQQSGPRLVRPSQTLSLTCAISGDSVFNNNAAWSWIRQSPSRGLEWLGRTYYRSKWLYDYAVSVKSRITVNPDTSRNQFTLQLNSVTPEDTALYYCARGYSSSFDYWGQGTLVTVSSASTKGPSVFPLAPCSRSTSESTAALGCLVKDYFPEPVTVSWNSGALTSGVHTFPAVLQSSGLYSLSSVVTVPSSSLGTKTYTCNVDHKPSNTKVDKRVESKYGPPCPPCPAPEAAGGPSVFLFPPKPKDTLMISRTPEVTCVVVDVSQEDPEVQFNWYVDGVEVHNAKTKPREEQFNSTYRVVSVLTVLHQDWLNGKEYKCKVSNKGLPSSIEKTISKAKGQPREPQVYTLPPSQEEMTKNQVSLTCLVKGFYPSDIAVEWESNGQPENNYKTTPPVLDSDGSFLLYSKLTVDKSRWQEGNVFSCSVMHEALHNHYTQKSLSLSLGK light 2: QSALTQPASVSGSPGQSITISCTGTSSNIGTYKFVSWYQQHPDKAPKVLLYEVSKRPSGVSSRFSGSKSGNTASLTISGLQAEDQADYHCVSYAGSGTLLFGGGTKLTVLGQPKAAPSVTLFPPSSEELQANKATLVCLISDFYPGAVTVAWKADSSPVKAGVETTTPSKQSNNKYAASSYLSLTPEQWKSHRSYSCQVTHEGSTVEKTVAPTECS | binds |
| PS3B76 (bispecific antibody, human IgG4 S228P, kappa, lambda, F234A L235A, IgG4 PAA; also called PSMB358 x CD3B376) heavy 1: not shown light 1: not shown heavy 2: QVQLQQSGPRLVRPSQTLSLTCAISGDSVFNNNAAWSWIRQSPSRGLEWLGRTYYRSKWLYDYAVSVKSRITVNPDTSRNQFTLQLNSVTPEDTALYYCARGYSSSFDYWGQGTLVTVSSASTKGPSVFPLAPCSRSTSESTAALGCLVKDYFPEPVTVSWNSGALTSGVHTFPAVLQSSGLYSLSSVVTVPSSSLGTKTYTCNVDHKPSNTKVDKRVESKYGPPCPPCPAPEAAGGPSVFLFPPKPKDTLMISRTPEVTCVVVDVSQEDPEVQFNWYVDGVEVHNAKTKPREEQFNSTYRVVSVLTVLHQDWLNGKEYKCKVSNKGLPSSIEKTISKAKGQPREPQVYTLPPSQEEMTKNQVSLTCLVKGFYPSDIAVEWESNGQPENNYKTTPPVLDSDGSFLLYSKLTVDKSRWQEGNVFSCSVMHEALHNHYTQKSLSLSLGK light 2: QSALTQPASVSGSPGQSITISCTGTSSNIGTYKFVSWYQQHPDKAPKVLLYEVSKRPSGVSSRFSGSKSGNTASLTISGLQAEDQADYHCVSYAGSGTLLFGGGTKLTVLGQPKAAPSVTLFPPSSEELQANKATLVCLISDFYPGAVTVAWKADSSPVKAGVETTTPSKQSNNKYAASSYLSLTPEQWKSHRSYSCQVTHEGSTVEKTVAPTECS | binds |
| PS3B80 (bispecific antibody, human IgG4 S228P, kappa, lambda, F234A L235A, IgG4 PAA; also called PSMB347 x CD3B376) heavy 1: not shown light 1: not shown heavy 2: QVQLQQSGPRLVRPSQTLSLTCAISGDSVFNNNAAWSWIRQSPSRGLEWLGRTYYRSKWLYDYAVSVKSRITVNPDTSRNQFTLQLNSVTPEDTALYYCARGYSSSFDYWGQGTLVTVSSASTKGPSVFPLAPCSRSTSESTAALGCLVKDYFPEPVTVSWNSGALTSGVHTFPAVLQSSGLYSLSSVVTVPSSSLGTKTYTCNVDHKPSNTKVDKRVESKYGPPCPPCPAPEAAGGPSVFLFPPKPKDTLMISRTPEVTCVVVDVSQEDPEVQFNWYVDGVEVHNAKTKPREEQFNSTYRVVSVLTVLHQDWLNGKEYKCKVSNKGLPSSIEKTISKAKGQPREPQVYTLPPSQEEMTKNQVSLTCLVKGFYPSDIAVEWESNGQPENNYKTTPPVLDSDGSFLLYSKLTVDKSRWQEGNVFSCSVMHEALHNHYTQKSLSLSLGK light 2: QSALTQPASVSGSPGQSITISCTGTSSNIGTYKFVSWYQQHPDKAPKVLLYEVSKRPSGVSSRFSGSKSGNTASLTISGLQAEDQADYHCVSYAGSGTLLFGGGTKLTVLGQPKAAPSVTLFPPSSEELQANKATLVCLISDFYPGAVTVAWKADSSPVKAGVETTTPSKQSNNKYAASSYLSLTPEQWKSHRSYSCQVTHEGSTVEKTVAPTECS | binds |
| PS3B79 (bispecific antibody, human IgG4 S228P, kappa, lambda, F234A L235A, IgG4 PAA; also called PSMB360 x CD3B376) heavy 1: not shown light 1: not shown heavy 2: QVQLQQSGPRLVRPSQTLSLTCAISGDSVFNNNAAWSWIRQSPSRGLEWLGRTYYRSKWLYDYAVSVKSRITVNPDTSRNQFTLQLNSVTPEDTALYYCARGYSSSFDYWGQGTLVTVSSASTKGPSVFPLAPCSRSTSESTAALGCLVKDYFPEPVTVSWNSGALTSGVHTFPAVLQSSGLYSLSSVVTVPSSSLGTKTYTCNVDHKPSNTKVDKRVESKYGPPCPPCPAPEAAGGPSVFLFPPKPKDTLMISRTPEVTCVVVDVSQEDPEVQFNWYVDGVEVHNAKTKPREEQFNSTYRVVSVLTVLHQDWLNGKEYKCKVSNKGLPSSIEKTISKAKGQPREPQVYTLPPSQEEMTKNQVSLTCLVKGFYPSDIAVEWESNGQPENNYKTTPPVLDSDGSFLLYSKLTVDKSRWQEGNVFSCSVMHEALHNHYTQKSLSLSLGK light 2: QSALTQPASVSGSPGQSITISCTGTSSNIGTYKFVSWYQQHPDKAPKVLLYEVSKRPSGVSSRFSGSKSGNTASLTISGLQAEDQADYHCVSYAGSGTLLFGGGTKLTVLGQPKAAPSVTLFPPSSEELQANKATLVCLISDFYPGAVTVAWKADSSPVKAGVETTTPSKQSNNKYAASSYLSLTPEQWKSHRSYSCQVTHEGSTVEKTVAPTECS | binds |
| PS3B77 (bispecific antibody, human IgG4 S228P, kappa, lambda, F234A L235A, IgG4 PAA; also called PSMB349 x CD3B376) heavy 1: not shown light 1: not shown heavy 2: QVQLQQSGPRLVRPSQTLSLTCAISGDSVFNNNAAWSWIRQSPSRGLEWLGRTYYRSKWLYDYAVSVKSRITVNPDTSRNQFTLQLNSVTPEDTALYYCARGYSSSFDYWGQGTLVTVSSASTKGPSVFPLAPCSRSTSESTAALGCLVKDYFPEPVTVSWNSGALTSGVHTFPAVLQSSGLYSLSSVVTVPSSSLGTKTYTCNVDHKPSNTKVDKRVESKYGPPCPPCPAPEAAGGPSVFLFPPKPKDTLMISRTPEVTCVVVDVSQEDPEVQFNWYVDGVEVHNAKTKPREEQFNSTYRVVSVLTVLHQDWLNGKEYKCKVSNKGLPSSIEKTISKAKGQPREPQVYTLPPSQEEMTKNQVSLTCLVKGFYPSDIAVEWESNGQPENNYKTTPPVLDSDGSFLLYSKLTVDKSRWQEGNVFSCSVMHEALHNHYTQKSLSLSLGK light 2: QSALTQPASVSGSPGQSITISCTGTSSNIGTYKFVSWYQQHPDKAPKVLLYEVSKRPSGVSSRFSGSKSGNTASLTISGLQAEDQADYHCVSYAGSGTLLFGGGTKLTVLGQPKAAPSVTLFPPSSEELQANKATLVCLISDFYPGAVTVAWKADSSPVKAGVETTTPSKQSNNKYAASSYLSLTPEQWKSHRSYSCQVTHEGSTVEKTVAPTECS | binds |
